The values that follow come from PMC5566480.

The term IC50 denotes the midpoint of a concentration-inhibition curve. As usually defined, the Kd is the equilibrium constant for the complex coming apart.

Assay [1] concerns the target Recombinant human Toll-like receptor 2 (rTLR2) (UniProt O60603). The assay is described as follows: ELISA; competition: synthesized peptides (1 μM, and dose-dependent for IC50) against the binding of rLipL32WT to rTLR2. On the technique in general: In an ELISA, binding on a coated surface is turned into a signal by an enzyme label.
Assay [2] has the same target. The assay is described as follows: ELISA. To be noted: parent: est. 0.37; read off a plot.
The target is the same in assay [3]. Nature of the assay: ELISA; dose-dependent; rTLR2 coated, LipL32 variants 0 to 2 μM in PBS, 90 min at 37 °C, anti-His6 detection; in the presence of 1 µM Ca2+; Kd from a one-site fit.
The target is the same in assay [4]. The assay is described as follows: ELISA; dose-dependent; rTLR2 coated, LipL32 variants 0 to 2 μM in PBS, 90 min at 37 °C, anti-His6 detection; in the presence of 1 µM EGTA; Kd from a one-site fit.
Assay [5] has the same target. The assay is described as follows: AFM force spectroscopy; rTLR2 covalently fixed on mica, LipL32 or variant coupled to the AFM tip (glutaraldehyde); force-distance curves, maximum distribution force and binding frequency; anti-TLR2 antibody as neutralising control.

Chain of Recombinant human Toll-like receptor 2 (rTLR2) (O60603 21-784): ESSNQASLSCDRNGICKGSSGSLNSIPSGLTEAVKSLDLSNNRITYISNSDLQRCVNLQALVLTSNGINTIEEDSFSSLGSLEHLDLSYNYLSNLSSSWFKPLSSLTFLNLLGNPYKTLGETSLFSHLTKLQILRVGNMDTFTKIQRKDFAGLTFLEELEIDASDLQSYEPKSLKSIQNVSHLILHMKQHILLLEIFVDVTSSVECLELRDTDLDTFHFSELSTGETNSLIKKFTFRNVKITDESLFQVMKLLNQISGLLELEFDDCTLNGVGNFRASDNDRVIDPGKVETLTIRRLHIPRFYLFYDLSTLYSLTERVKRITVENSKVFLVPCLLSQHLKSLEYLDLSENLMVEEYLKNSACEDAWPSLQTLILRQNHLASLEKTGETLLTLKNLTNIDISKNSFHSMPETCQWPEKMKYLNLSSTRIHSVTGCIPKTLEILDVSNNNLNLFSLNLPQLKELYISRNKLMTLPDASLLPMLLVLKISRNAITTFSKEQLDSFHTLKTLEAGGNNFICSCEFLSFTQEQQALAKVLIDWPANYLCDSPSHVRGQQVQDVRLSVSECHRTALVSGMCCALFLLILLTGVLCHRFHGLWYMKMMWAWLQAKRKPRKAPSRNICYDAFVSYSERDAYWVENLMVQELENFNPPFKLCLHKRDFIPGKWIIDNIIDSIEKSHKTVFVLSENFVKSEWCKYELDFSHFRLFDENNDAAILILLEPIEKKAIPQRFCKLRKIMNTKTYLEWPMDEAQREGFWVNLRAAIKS

For the substance N50 peptide (1–50 residues of LipL32), the IC50 in assay [1] came to 70 nM.

“Recombinant LipL32 wild type, mature form (rLipL32; 21-272) L263S”: the response in assay [2] is 0.29 OD450nm. With “C25 peptide (248–272 residues of LipL32)”, the half-inhibitory concentration (IC50) in assay [1] came to 140 nM. Turning to rLipL32 D196A variant (natural protein), the equilibrium dissociation constant (Kd) in assay [3] and in assay [4] was 160 nM in each case. Consider “Recombinant LipL32 wild type, mature form (rLipL32; 21-272) (natural protein)”, for which the Kd in assay [3] amounted to 130 nM; in assay [4] it was 450 nM. In addition, the maximum distribution force (AFM) in assay [5] worked out at 55.3 pN. For rLipL32 D195A variant (natural protein), the Kd stood at 100 nM in assay [3] and 120 nM in assay [4]. Regarding N20 peptide (1–20 residues of LipL32), in assay [1], the IC50 was determined as 90 nM.
